Data from patent US11859229B2, “Polyvinyl alcohol-degrading enzyme and process for producing the same” (Hayashibara Co., Ltd., priority 2017, dated 2024).

Legend:
Assay type in all cases: biochemical
[1] = PVA-degrading (viscosity-reducing) activity; conditions: at each purification step
Protocol: While, activity as a PVA-degrading enzyme can be measured, for example, by measuring the viscosity reduction of a PVA solution, caused by the degradation of PVA, as an index using the following method.
To 0.5 mL of a substrate solution prepared by dissolving PVA (Reagent grade polyvinyl alcohol, polymerization degree: 2,000, Nacalai Tesque Inc., Kyoto, Japan) into 100 mM sodium phosphate buffer (pH 7.0) to give a concentration of 2% (w/v), 15 µL of 2% (w/v) of sodium azide solution was added, and then 0.5 mL of an enzyme solution is further added and reacted with shaking at 27° C. for 60 min. After the reaction, 0.6 mL of the reaction mixture was withdrawn and its viscosity was measured using a Cone plate-type viscometer (“DV-II+Pro”, Brookfield Co., Ltd.) at 30° C. Separately, the enzyme solution was added to the substrate solution and the viscosity was measured immediately, and the viscosity was used as that at zero-min reaction. The PVA-degrading activity was calculated based on the following formula. One unit of the PVA-degrading activity was defined as the amount of enzyme that causes a 10%-reduction of relative viscosity per min under the above conditions. […]

[2] = Gel filtration HPLC of PVA degradation products (molecular weight); conditions: 10 units of the enzyme on 1% (w/v) PVA for 20 hours; substrate PVA Mw about 10.6×10^4
Protocol: While, the molecular weight of the degraded product of PVA was analyzed by conventional gel filtration HPLC for a reaction mixture obtained by allowing 10 units of the enzyme to act on 1% (w/v) PVA solution for 20 hours. Gel filtration HPLC was carried out using the following conditions: • Column: “TSKgel […]-4000” (manufactured by Tosoh Corporation, Tokyo, Japan) • (Two columns were tandemly connected.); • Eluent: 50 mM phosphate buffer eluent (pH7.0); • Column temperature: 40° C.; • Flow rate: 0.5 mL/min; • Detector: “RID-20A”, a differential refractometer, manufactured by Shimadzu Corporation, Kyoto, Japan.
The molecular weights of PVA and the degradation products of PVA were respectively calculated based on a calibration curve of molecular weights prepared by subjecting pullulan standards for molecular weight measurement, commercialized by Hayashibara Co., Ltd., Okayama, Japan, to gel filtration HPLC in the same manner. The gel filtration HPLC chromatogram of the reaction mixture (symbol “b” in FIG. 11) is shown in FIG. 11 in comparison with that of PVA used as a substrate (symbol “a” in FIG. 11).

[3] = Thermal stability and pH stability (residual PVA-oxidizing activity); conditions: 10 mM phosphate buffer, pH 7.0, 60 min
Protocol: To 0.5 mL of a substrate solution prepared by dissolving PVA (Reagent grade polyvinyl alcohol, polymerization degree: 2,000, Nacalai Tesque Inc., Kyoto, Japan) into 100 mM sodium phosphate buffer (pH 7.0) to give a concentration of 2% (w/v), 15 µL of 2% (w/v) of sodium azide solution was added, and then 0.5 mL of an enzyme solution is further added and reacted with shaking at 27° C. for 60 min. After the 60 min-reaction, the reaction was stopped by mixing 0.32 mL of the reaction mixture to 0.8 mL of a titanium reagent, and the yellow color, produced by reacting hydrogen peroxide formed by the enzyme reaction and the titanium reagent, was measured by measuring the absorbance at 410 nm (A410) as an index. Separately, the enzyme solution was added to the substrate solution, and the resulting mixture is immediately mixed with the titanium reagent. The resulting mixture was similarly measured its color and the value was used as the value at the reaction zero minutes. Then, the amount of the formed hydrogen peroxide is determined and the PVA-oxidizing activity is calculated based on the following formula. It is known that the absorbance at 410 nm (A410) increases by “1” when 3.65 […]mole/mL of hydrogen peroxide is formed. […]
In the two purified preparations of the PVA-degrading enzyme, PVA-A was used for investigating thermal stability and pH stability using PVA-oxidizing activity as an index according to the assay method. Thermal stability was determined by the steps of incubating the enzyme solution (in 10 mM phosphate buffer, pH 7.0) at various temperature for 60 min, cooling in water, and then measuring the residual enzyme activity. pH Stability was determined by the steps of incubating the enzyme solution in 100 mM buffer with different pH at 4° C. for 24 hours, adjusting pH to 7.0, and then measuring the residual enzyme activity. […] In FIG. 6, symbols, “●”, “▪”, “▴” and “♦”, mean values measured by using acetate buffer, phosphate buffer, glycine-NaOH buffer, and potassium chloride-NaOH buffer, respectively, for pH control.

B1: PVA-A: purified PVA-degrading hybrid enzyme from Pseudomonas sp. VT1B strain, amino acid sequence of SEQ ID NO: 2 (protein, listed as Pseudomonas sp.)
chain: AENWPMFGKNYENTRATSDTQISTANISTLNVVRRTTDGGITGTPTVVDGVAYYSDFSGYVKAVRVSDGVVLWRVRPQTTMLSPSPFVTADTVYVAGNNSYVYALNRANGAVRWTTQIETSPNSRISSSPIVVGNILIIGTGSYQVFLPATPMFRGRVAFLNATTGAILPYSTNMCPSASCGGGISVWSTAAIDESTRTGYIGTGQAYRDPAGPYSDALVAFNIDTGAIRWARQFLANDVYQLGGTLRYDYDVGAAPNLFVANGQRMVGVGGKDGTYRAFNRDTGAPIWNTPVGRGSAIGGVMQSTAYGDGRIYVTSNTSTIGSGRNDPVPATAEASALDAATGAPVWIRQLDAGGFGGVAYANGLMYASTWDGRLRVFNAANGNIVREVQVSPSRGAYVPAPTDGFPNGSAGGPVVYGNRVLMGYGWTWVLNINGGLTTMEATVGGGASQTVTLASSSDTYVQSGTPTTNYAYDVNLLARLADAEGLTRASFLQFPLTAVPAGTITSARLRLYGRHDAPTGTGQSVSVWPGTKTTTWSGPNVTYNNSSTETGVDFYATSSIATATVGITPQYYEWNVTDYVASRRSLGHATFGVAVNSAHQYRVTLNSADNTANRPELVVTVSGGTGSQLPGSCPSGFTARAGVNQGFMHNGVARGFVLNVPANVSTPRPVFVSLTGSVESTNENLGARGGAGALNNDGFLVIGPVRRCAGQDPNGAGTSVNGGTCNQAGTGGWNWNPWNEGRVFAAAGDPWKTAEGPDSQFLEAVVRCVAASYPVDSTRMYLGGISSGATMTHRALLFNSDFWAGGLPLSGEWYVSQDNGTAYPGADEFAARRQAVINNPTKIFQGRVGPLPLPATQSPMIVISMWGGANDIWYCGSTLCADYRPSTQAASNYFSALPNVVHVACSSSHGHQWPTQNRAAFNTWAATTLASHPKGTPASSFVLPPPPAGYSCRVGRYTDHYSGT
- Total PVA-Degrading Activity (Viscosity-reducing Activity) [1]: 8.2 U
- weight average molecular weight (Mw) of the degraded products of PVA [2]: about 4,400
- Thermal stability of PVA-oxidizing activity [3]: up to 45 °C
